Consider one substance from patent US20230406901A1.

The assay deals with growth hormone receptor (GHR) on BAF3/GHR cells. Put plainly: cell-based or functional assay.

Turning to “growth hormone fusion protein containing a flexible linker, GH(GGGGS)4 (from UniProt P01861 100-325) (Fc fusion)”, the EC50(nM), proliferation of BAF3/GHR cells (Alamar-Blue) came out at 3.19 nM and the Relative potency, proliferation of BAF3/GHR cells (Alamar-Blue) worked out at 37.7%.
